Data reported in US20150203577A1 (Chugai, published 2015).
Substitutions are numbered along the chain they refer to.

T1: mouse FcγRII extracellular domain, C-terminally His-tagged (mouse, UniProt P08101 30-210)
T1 construct: the whole entry is named; also called mFcγRII; mFcgRII
T1 sequence: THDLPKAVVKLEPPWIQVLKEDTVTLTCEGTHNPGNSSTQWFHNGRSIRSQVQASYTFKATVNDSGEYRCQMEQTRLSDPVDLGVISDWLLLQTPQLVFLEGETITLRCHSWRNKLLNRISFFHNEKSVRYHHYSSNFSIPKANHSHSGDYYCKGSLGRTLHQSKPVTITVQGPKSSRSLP

T2: mouse FcγRIII extracellular domain, C-terminally His-tagged (mouse, UniProt P08508 31-215)
T2 construct: the whole entry is named; also called mFcγRIII; mFcgRIII
T2 chain: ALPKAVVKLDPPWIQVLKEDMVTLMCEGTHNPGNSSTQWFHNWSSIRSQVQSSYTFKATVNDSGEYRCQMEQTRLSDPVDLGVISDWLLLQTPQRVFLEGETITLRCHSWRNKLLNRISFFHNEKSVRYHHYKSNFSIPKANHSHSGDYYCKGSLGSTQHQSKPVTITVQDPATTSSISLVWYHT

T3: mouse FcγRIII (mouse, UniProt P08508 31-215)
T3 construct: also called mFcγRIII; mFcgRIII
T3 chain: T2 chain

T4: mouse FcγRII (mouse, UniProt P08101 30-210)
T4 construct: also called mFcγRII; mFcgRII
T4 sequence: T1 sequence

B1: H237-MB463/MRAL-k0 (antibody, mouse IgG1, kappa)
heavy: QVQLQESGPGLVKPSETLSLTCAVSGHSISHDHAWSWVRQPPGEGLEWIGFISYSGITNYNPSLQGRVTISRDNSKNTLYLQMNSLRAEDTAVYYCARSLARTTAMDYWGEGTLVTVSSAKTTPPSVYPLAPGSAAQTNSMVTLGCLVKGYFPEPVTVTWNSGSLSSGVHTFPAVLQSDLYTLSSSVTVPSSTWPSETVTCNVAHPASSTKVDKKIVPRDCGCKPCICETYEVEDVFIFPPKPKDVLTITLTPKVTCVVVDISKDDPEVQFSWFVDDVEVHTAQTQPREEQFNSTFRSVSELPIMHQDWLNGKEFKCRVNSAAFPAPIEKTIWKTKGRPKAPQVYTIPPPKEQMAKDKVSLTCMITDFFPEDITVEWQWNGQPAENYKNTQPIMDTDGSYFVYSKLNVQKSNWEAGNTFTCSVLHEGLHNHHTEKSLSHSPGK
light: not shown
notes: copies: 2 + 2
B2: H237-MB478/MRAL-k0 (antibody, mouse IgG1, kappa)
heavy: B1 heavy with T230P, Y231N, Q291L, W333S
light: not shown
notes: copies: 2 + 2
B3: H237-MB465/MRAL-k0 (antibody, mouse IgG1, kappa)
heavy: B1 heavy with Q291L, W333S
light: not shown
notes: copies: 2 + 2
B4: H237-MB491/MRAL-k0 (antibody, mouse IgG1, kappa)
heavy: B1 heavy with T230P, Y231N, S294M, W333S
light: not shown
notes: copies: 2 + 2
B5: H237-MB495/MRAL-k0 (antibody, mouse IgG1, kappa)
heavy: B1 heavy with T230P, Y231N, S294M, N320D, W333S
light: not shown
notes: copies: 2 + 2
B6: H237-MB464/MRAL-k0 (antibody, mouse IgG1, kappa)
heavy: B1 heavy with S263A, W333S
light: not shown
notes: copies: 2 + 2
B7: H237-MB494/MRAL-k0 (antibody, mouse IgG1, kappa)
heavy: B1 heavy with T230P, Y231N, S294L, K330R, W333S
light: not shown
notes: copies: 2 + 2
B8: H237-MB477/MRAL-k0 (antibody, mouse IgG1, kappa)
heavy: B1 heavy with T230P, Y231N, S263A, W333S
light: not shown
notes: copies: 2 + 2
B9: H237-MB467/MRAL-k0 (antibody, mouse IgG1, kappa)
heavy: B1 heavy with A323G, W333S
light: not shown
notes: copies: 2 + 2
B10: H237-MB479/MRAL-k0 (antibody, mouse IgG1, kappa)
heavy: B1 heavy with T230P, Y231N, A322D, W333S
light: not shown
notes: copies: 2 + 2
B11: H237-MB492/MRAL-k0 (antibody, mouse IgG1, kappa)
heavy: B1 heavy with T230P, Y231N, N320D, W333S
light: not shown
notes: copies: 2 + 2
B12: H237-MB497/MRAL-k0 (antibody, mouse IgG1, kappa)
heavy: B1 heavy with T230P, Y231N, N320D, K330R, W333S
light: not shown
notes: copies: 2 + 2
B13: H237-MB480/MRAL-k0 (antibody, mouse IgG1, kappa)
heavy: B1 heavy with T230P, Y231N, K330R, W333S
light: not shown
notes: copies: 2 + 2
B14: H237-MB466/MRAL-k0 (antibody, mouse IgG1, kappa)
heavy: B1 heavy with A322D, W333S
light: not shown
notes: copies: 2 + 2
B15: H237-MB493/MRAL-k0 (antibody, mouse IgG1, kappa)
heavy: B1 heavy with T230P, Y231N, S294L, N320D, W333S
light: not shown
notes: copies: 2 + 2
B16: H237-MB496/MRAL-k0 (antibody, mouse IgG1, kappa)
heavy: B1 heavy with T230P, Y231N, S294M, K330R, W333S
light: not shown
notes: copies: 2 + 2
B17: H237-MB498/MRAL-k0 (antibody, mouse IgG1, kappa)
heavy: B1 heavy with T230P, Y231N, S294L, N320D, K330R, W333S
light: not shown
notes: copies: 2 + 2
B18: H237-MB499/MRAL-k0 (antibody, mouse IgG1, kappa)
heavy: B1 heavy with T230P, Y231N, S294M, N320D, K330R, W333S
light: not shown
notes: copies: 2 + 2
B19: H237-MB490/MRAL-k0 (antibody, mouse IgG1, kappa)
heavy: B1 heavy with T230P, Y231N, S294L, W333S
light: not shown
notes: copies: 2 + 2
B20: H237-MB290/MRAL-k0 (antibody, mouse IgG1, kappa)
heavy: B1 heavy with E229T, T230A, Y231P, E234S, W333S
light: not shown
notes: copies: 2 + 2
B21: H237-MB305/MRAL-k0 (antibody, mouse IgG1, kappa)
heavy: B1 heavy with E229T, T230A, Y231E, E234S, W333S
light: not shown
notes: copies: 2 + 2
B22: H237-MB302/MRAL-k0 (antibody, mouse IgG1, kappa)
heavy: B1 heavy with T230V, Y231P, W333S
light: not shown
notes: copies: 2 + 2
B23: H237-MB337/MRAL-k0 (antibody, mouse IgG1, kappa)
heavy: B1 heavy with T230A, Y231P, W333S
light: not shown
notes: copies: 2 + 2

Target: T1, mouse FcγRII extracellular domain, …
Assay: SPR Biacore T200, KD ratio
Text: (§1) The antibody H chain variable region used was the variable region H237 (SEQ ID NO: 1) of the H chain VH3-IgG1 of the anti-IL-6 receptor antibody Fv4-IgG1 described in WO2009/125825. The antibody L chain commonly used was the L chain MRAL-k0 (SEQ ID NO: 2) of the anti-IL-6 receptor antibody tocilizumab. […] The resulting variant groups were designated as MB397 variants and MB390 variants, respectively. These variants were expressed and purified by the method of Reference Example 1 and evaluated for their binding to mFcγRII and mFcγRIII by the method of Reference Example 2 using Biacore T200.
(§2) Each altered antibody was analyzed for its interaction with each Fcγ receptor prepared above using Biacore T100 (GE Healthcare Japan Corp.), Biacore T200 (GE Healthcare Japan Corp.), Biacore A100, or Biacore 4000. The running buffer used was HBS-EP+ (GE Healthcare Japan Corp.). The assay temperature was set to 25° C. The sensor chips used were chips prepared by immobilizing Protein L (ACTIGEN or BioVision) onto Series S Sensor Chip CM5 (GE Healthcare Japan Corp.) or Series S Sensor Chip CM4 (GE Healthcare Japan Corp.) by the amine coupling method.
(§3) In order to calculate the KD value of each altered antibody for FcγR, kinetic analysis was conducted according to the following method: first, the antibody of interest was captured onto any of these chips and allowed to interact with mFcγR diluted with a running buffer. For the obtained sensorgram, the assay results were globally fit into the 1:1 Langmuir binding model using Biacore Evaluation Software to calculate an association rate constant ka (L/mol/s) and a dissociation rate constant kd (1/s). From these values, the dissociation constant KD (mol/L) was calculated.

relative mFcγRII-binding activity (MB397 = 1) [fold]	relative mFcγRII-binding activity (mIgG1 = 1) [fold]	relative mFcγRII-binding activity (MB390 = 1) [fold]	Binder
0.55	307		B1
	254	0.49	B2
0.35	192		B3
	478	0.92	B4
	623	1.2	B5
0.16	88.5		B6
	2110	4.05	B7
	196	0.38	B8
0.49	271		B9
	734	1.41	B10
	622	1.19	B11
	773	1.48	B12
	511	0.98	B13
0.81	449		B14
	1420	2.73	B15
	884	1.7	B16
	3340	6.4	B17
	992	1.9	B18
	1130	2.16	B19

Target: T2, mouse FcγRIII extracellular domain, …
Assay: SPR Biacore T200, KD ratio
Text: as §1, §2, §3

relative mFcγRIII-binding activity (MB397 = 1) [fold]	relative mFcγRIII-binding activity (mIgG1 = 1) [fold]	relative mFcγRIII-binding activity (MB390 = 1) [fold]	Binder
1.12	21.6		B1
	4.7	0.39	B2
0.77	15		B3
	12.4	1.05	B4
	17.2	1.45	B5
0.39	7.6		B6
	59.4	4.99	B7
	3	0.25	B8
0.99	19.2		B9
	13.8	1.16	B10
	10.9	0.92	B11
	15.7	1.32	B12
	10.2	0.85	B13
1.66	32		B14
	44.9	3.77	B15
	20.3	1.71	B16
	85.1	7.15	B17
	24.2	2.03	B18
	34.6	2.9	B19

Target: T3, mouse FcγRIII
Assay: SPR Biacore T200, KD ratio
Text: as §1, with “group was” for “groups were”, “MB110 variants.” for “MB397 variants and MB390 variants, respectively.”
as §2, §3

Relative mFcγRIII-binding activity (MB110 = 1) [fold]	relative mFcγRIII-binding activity (mIgG1 = 1) [fold]	Binder
1.37	5.5	B20
0.94	3.8	B21
1.11	4.5	B22
1.15	4.6	B23

Target: T4, mouse FcγRII
Assay: SPR Biacore T200, KD ratio
Text: as §1, with “group was” for “groups were”, “MB110 variants.” for “MB397 variants and MB390 variants, respectively.”
as §2, §3

Relative mFcγRII-binding activity (MB110 = 1) [fold]	relative mFcγRII-binding activity (mIgG1 = 1) [fold]	Binder
2.16	26.5	B20
2.12	26	B21
4.37	53.7	B22
5.98	73.4	B23
